In the Human Domainome abundance scans (Beltran et al. 2025):
± gives the uncertainty stated by the source.

B1: Ankyrin-3, residues 4094 to 4171; numbered along this chain, Q12955 (parent)
chain: MAIVADHLGLSWTELARELNFSVDEINQIRVENPNSLISQSFMLLKKWVTRDGKNATTDALTSVLTKINRIDIVTLLE

Variants of: B1
Assay: abundance fitness (aPCA) (normalised: wild type 0, dead -1); higher = more abundant; growth selection in yeast, the domain comes from the species named
Conditions: Homo sapiens

Abundance fitness of substitutions, site by site:
D6: Y -0.342 ± 0.12; A -0.25 ± 0.069; W -0.517 ± 0.079; E 0.096 ± 0.069; G -0.156 ± 0.05; N -0.067 ± 0.3; K 0.155 ± 0.038; C -0.418 ± 0.14
I3: C -0.225 ± 0.12; Y -0.486 ± 0.16; S -0.411 ± 0.062; L -0.027 ± 0.051; E -0.342 ± 0.083; G -0.506 ± 0.06; Q -0.33 ± 0.076; K -0.27 ± 0.11; R -0.321 ± 0.05; D -0.489 ± 0.16; V -0.05 ± 0.053; M -0.081 ± 0.096; P -0.46 ± 0.087; H -0.523 ± 0.17
E18: C -0.531 ± 0.12; I -0.721 ± 0.22; S -0.625 ± 0.095; Q -0.388 ± 0.18; A -0.187 ± 0.053; Y -0.605 ± 0.17; K -0.532 ± 0.3; G -0.455 ± 0.053; D -0.614 ± 0.3; T -0.427 ± 0.17; W -0.825 ± 0.16; F -0.451 ± 0.13; V -0.148 ± 0.053; R -1.09 ± 0.21; H -0.317 ± 0.15; M -0.339 ± 0.16
A2: M -0.175 ± 0.1; G 0.14 ± 0.051; N 0.08 ± 0.16; D 0.173 ± 0.074; P -0.193 ± 0.057; E 0.224 ± 0.084; W 0.169 ± 0.077; H -0.033 ± 0.077; K -0.095 ± 0.2; T 0.077 ± 0.06; Q 0.058 ± 0.072; V -0.146 ± 0.049; Y -0.037 ± 0.21; C -0.077 ± 0.1; R 0.149 ± 0.044; F -0.035 ± 0.11; L -0.126 ± 0.067
A5: L -0.921 ± 0.19; I -0.74 ± 0.31; R -0.498 ± 0.076; K -0.648 ± 0.18; P -0.899 ± 0.26; V -0.484 ± 0.068; C -0.359 ± 0.12; H -0.716 ± 0.43; W -0.765 ± 0.13; T -0.774 ± 0.18; Y -0.745 ± 0.34
F21: G -0.7 ± 0.082; I -0.665 ± 0.21; C -1 ± 0.29; D -0.949 ± 0.34; E -0.997 ± 0.2; P -0.708 ± 0.12; N -0.57 ± 0.22; S -0.893 ± 0.13; Y -0.358 ± 0.18; H -0.842 ± 0.4; V -0.81 ± 0.1; Q -0.694 ± 0.2; A -0.842 ± 0.14; W -0.978 ± 0.22; M -0.561 ± 0.14; T -0.869 ± 0.32
E14: W -0.469 ± 0.14; Y -0.432 ± 0.15; D -0.074 ± 0.085; A -0.082 ± 0.068; K -0.347 ± 0.15; S -0.098 ± 0.057; Q -0.02 ± 0.056; M -0.185 ± 0.094; T -0.198 ± 0.086; I -0.278 ± 0.14; V -0.02 ± 0.057; R -0.289 ± 0.05; C -0.23 ± 0.14; H -0.156 ± 0.12; L -0.306 ± 0.065; P -0.583 ± 0.09; G -0.426 ± 0.063
R17: F -0.108 ± 0.15; S -0.08 ± 0.04; D -0.203 ± 0.13; M -0.053 ± 0.099; T -0.037 ± 0.063; E -0.074 ± 0.1; I -0.412 ± 0.3; K 0.143 ± 0.083; Y -0.061 ± 0.092; P -0.869 ± 0.27; H -0.182 ± 0.13; W -0.101 ± 0.1; V -0.161 ± 0.059; A -0.033 ± 0.068; C -0.076 ± 0.12; L -0.06 ± 0.051; G -0.163 ± 0.058; Q -0.273 ± 0.12; N 0.231 ± 0.2
S22: Y -0.646 ± 0.37; C 0.048 ± 0.5
L15: C -0.433 ± 0.13; E -0.766 ± 0.18; I -0.387 ± 0.2; G -0.93 ± 0.13; P -0.741 ± 0.15; M -0.073 ± 0.084; F -0.149 ± 0.096; S -0.772 ± 0.12; V -0.039 ± 0.059; T -0.891 ± 0.3; R -0.869 ± 0.11; Q -0.75 ± 0.33
H7: P -0.881 ± 0.11; V -0.202 ± 0.057; E 0.011 ± 0.074; C -0.637 ± 0.13; T -0.175 ± 0.069; N -0.292 ± 0.15; R -0.05 ± 0.048; G -0.705 ± 0.062; K -0.016 ± 0.1; I -0.642 ± 0.26; S -0.358 ± 0.065; F -0.521 ± 0.22; M -0.12 ± 0.085; Q -0.043 ± 0.066; Y -0.444 ± 0.13; A -0.11 ± 0.051; W -0.802 ± 0.21; D -0.796 ± 0.22; L -0.366 ± 0.055
T13: H -0.178 ± 0.11; S -0.078 ± 0.057; W -0.707 ± 0.1; G -0.417 ± 0.062; L -0.104 ± 0.049; P 0.101 ± 0.058; C -0.546 ± 0.14; A -0.153 ± 0.064; K -0.554 ± 0.21; V -0.041 ± 0.055; D -0.35 ± 0.18; Q -0.201 ± 0.11; M -0.054 ± 0.071; I -0.02 ± 0.1; E 0.005 ± 0.084; N -0.309 ± 0.19
